# Tests used:
# [1] = target: Atg8 (1-116) K26P (S. cerevisiae) (UniProt P38182); assay: ITC; MicroCal iTC200, 25 °C; peptide in the syringe (FAM134B, SEC62, RTN3 0.5 mM; Atg40^234–252 2.0 mM; Atg40^237–252 1.8 mM), Atg8-family protein in the cell at 10 times lower concentration (1.8 mM Atg8 for Atg40^237–252 D243A D247A); 20 mM HEPES pH 6.8, 150 mM NaCl; single-site model; errors are fitting errors
# GABARAPL1 WT = GABARAPL1 WT (UniProt Q9H0R8); assay: ITC; peptide in the syringe (0.5 mM) titrated into 200 µl of the Atg8 homologue in the cell at a 10 times lower concentration; MicroCal iTC200, 25 °C, stirring at 1000 rpm; single-site binding model; N fixed to 1.0 when the fitting was not convergent due to weak interaction; errors are fitting errors
# [2] = target: LC3B WT (rat LC3B 1-120) (rat) (UniProt Q62625); assay: as above
# LC3A WT = LC3A WT (UniProt Q9H492); assay: as above
# LC3C WT = LC3C WT (UniProt Q9BXW4); assay: as above
# GABARAPL2 WT = GABARAPL2 WT (UniProt P60520); assay: as above
# [3] = target: GABARAP WT (human GABARAP 1-116) (human) (UniProt O95166); assay: as above
# GABARAP WT (human GABARAP 1-116) (human), sequence (O95166 1-116): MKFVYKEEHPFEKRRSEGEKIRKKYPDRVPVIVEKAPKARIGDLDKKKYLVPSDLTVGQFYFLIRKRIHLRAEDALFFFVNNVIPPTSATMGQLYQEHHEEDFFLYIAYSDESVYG
# GABARAPL1 WT, sequence (Q9H0R8 whole entry): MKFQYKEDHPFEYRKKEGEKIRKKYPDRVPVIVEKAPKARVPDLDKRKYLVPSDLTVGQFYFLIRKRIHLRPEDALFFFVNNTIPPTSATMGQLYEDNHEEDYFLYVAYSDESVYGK
# LC3C WT, sequence (Q9BXW4 1-126): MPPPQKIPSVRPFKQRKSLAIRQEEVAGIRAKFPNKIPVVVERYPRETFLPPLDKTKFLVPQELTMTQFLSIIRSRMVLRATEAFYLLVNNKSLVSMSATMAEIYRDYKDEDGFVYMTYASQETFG
# GABARAPL2 WT, sequence (P60520 whole entry): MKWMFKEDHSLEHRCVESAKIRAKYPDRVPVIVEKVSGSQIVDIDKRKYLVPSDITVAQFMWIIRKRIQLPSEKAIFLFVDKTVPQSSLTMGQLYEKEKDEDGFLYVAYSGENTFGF
# Atg8 (1-116) K26P (S. cerevisiae), sequence (P38182 1-116 K26P): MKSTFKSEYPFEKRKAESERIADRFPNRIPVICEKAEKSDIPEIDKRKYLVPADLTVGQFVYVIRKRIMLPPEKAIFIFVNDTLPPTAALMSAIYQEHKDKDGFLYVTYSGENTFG
substance,measurement,setting,value
Atg40^237–252 peptide (from UniProt Q99325 237-252),Kd,[1],570 nM
FAM134B444-470 WT peptide,Kd,GABARAPL1 WT,120 nM
same,stoichiometry N,GABARAPL1 WT,0.97 site
same,Kd,[2],620 nM
same,stoichiometry N,[2],1.08 site
same,Kd,LC3A WT,210 nM
same,stoichiometry N,LC3A WT,0.7 site
same,Kd,LC3C WT,1110 nM
same,stoichiometry N,LC3C WT,0.74 site
same,Kd,GABARAPL2 WT,300 nM
same,stoichiometry N,GABARAPL2 WT,0.89 site
FAM134B444-470 L458A peptide,Kd,[3],2060 nM
same,stoichiometry N,[3],0.99 site
FAM134B444-470 E456A E462A peptide,Kd,[2],8200 nM
same,stoichiometry N,[2],1.28 site
